Experimental data taken from patent EP4484444A1 (Centre National de la Recherche Scientifique, dated 2025).

T1: human BMP-1 (bone morphogenetic protein-1) fused to a C-terminal Flag tag (human, UniProt P13497-2 121-730, limits assumed)
T1 construct: Produced in HEK 293-EBNA cells; also called full-length BMP-1; not shown: C-terminal Flag tag
T1 sequence (looked up): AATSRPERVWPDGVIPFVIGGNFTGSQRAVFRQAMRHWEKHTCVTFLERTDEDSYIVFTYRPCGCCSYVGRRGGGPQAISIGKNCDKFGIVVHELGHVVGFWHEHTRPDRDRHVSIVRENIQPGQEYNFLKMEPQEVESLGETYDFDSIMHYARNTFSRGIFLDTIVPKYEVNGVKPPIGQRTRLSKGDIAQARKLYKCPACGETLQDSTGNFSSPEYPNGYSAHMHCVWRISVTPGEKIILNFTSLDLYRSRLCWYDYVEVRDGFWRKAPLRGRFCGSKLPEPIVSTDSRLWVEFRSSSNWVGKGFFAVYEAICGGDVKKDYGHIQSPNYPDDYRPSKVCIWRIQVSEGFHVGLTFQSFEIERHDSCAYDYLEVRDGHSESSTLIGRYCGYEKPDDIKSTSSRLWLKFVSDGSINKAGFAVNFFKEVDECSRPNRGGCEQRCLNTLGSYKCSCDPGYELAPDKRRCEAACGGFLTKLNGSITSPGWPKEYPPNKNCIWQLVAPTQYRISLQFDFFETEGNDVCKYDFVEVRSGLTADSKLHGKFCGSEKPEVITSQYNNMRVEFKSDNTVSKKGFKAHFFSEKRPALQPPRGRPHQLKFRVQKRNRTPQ

B1: CUB1CUB2* domains of PCPE-2 (other)
chain: GPASQSPERPVFTCGGILTGESGFIGSEGFPGVYPPNSKCTWKITVPEGKVVVLNFRFIDLESDNLCRYDFVDVYNGHANGQRIGRFCGTFRPGALVSSGNKMMVQMISDANTAGNGFMAMFSAAEPNERGDQYCGGLLDRPSGSFKTPNWPDRDYPAGVTCVWHIVAPKNQLIELKFEKFDVERDNYCRYDYVAVFNGGEVNDARRIGKYCGDSPPAPIVSERNELLIQFLSDLSLTADGFIGHYIFRPKLEVLFQ
notes: Two O-glycosylated forms are seen on the gel; also called C1-C2*; the CUB domains of PCPE-2
B2: C-propeptide III (C-propeptide of procollagen III) (other, UniProt P02461 1222-1466, looked up)
chain: DEPMDFKINTDEIMTSLKSVNGQIESLISPDGSRKNPARNCRDLKFCHPELKSGEYWVDPNQGCKLDAIKVFCNMETGETCISANPLNVPRKHWWTDSSAEKKHVWFGESMDGGFQFSYGNPELPEDVLDVHLAFLRLLSSRASQNITYHCKNSIAYMDQASGNVKKALKLMGSNEGEFKAEGNSKFTYTVLEDGCTKHTGEWSKTVFEYRTRKAVRLPIVDIAPYDIGGPDQEFGVDVGPVCFL
notes: domain: C-propeptide; Described as an uncleavable substrate mimic; Immobilized in SPR (351 RU); also called C-propeptide of collagen III
B3: catalytic domain of BMP-1 (enzyme, UniProt P13497 121-320, looked up)
chain: AATSRPERVWPDGVIPFVIGGNFTGSQRAVFRQAMRHWEKHTCVTFLERTDEDSYIVFTYRPCGCCSYVGRRGGGPQAISIGKNCDKFGIVVHELGHVVGFWHEHTRPDRDRHVSIVRENIQPGQEYNFLKMEPQEVESLGETYDFDSIMHYARNTFSRGIFLDTIVPKYEVNGVKPPIGQRTRLSKGDIAQARKLYKCP
notes: domain: catalytic domain; also called BMP-1cat
B4: NTR domain of PCPE-2 (other, human, UniProt Q9UKZ9 297-415, looked up)
chain: CQQKCRRTGTLEGNYCSSDFVLAGTVITTITRDGSLHATVSIINIYKEGNLAIQQAGKNMSARLTVVCKQCPLLRRGLNYIIMGQVGEDGRGKIMPNSFIMMFKTKNQKLLDALKNKQC
notes: domain: NTR
B5: C2NTR (CUB2 and NTR domains of PCPE-2) (other)
chain: ETGHHHHHHCGGLLDRPSGSFKTPNWPDRDYPAGVTCVWHIVAPKNQLIELKFEKFDVERDNYCRYDYVAVFNGGEVNDARRIGKYCGDSPPAPIVSERNELLIQFLSDLSLTADGFIGHYIFRPKKLPTTTEQPVTTTFPVTTGLKPTVALCQQKCRRTGTLEGNYCSSDFVLAGTVITTITRDGSLHATVSIINIYKEGNLAIQQAGKNMSARLTVVCKQCPLLRRGLNYIIMGQVGEDGRGKIMPNSFIMMFKTKNQKLLDALKNKQC
notes: also called CUB2NTR
B6: recombinant human PCPE-2 (procollagen C-proteinase enhancer 2) fused to a 6 Histidine-tag at the N-terminus (other)
chain: HHHHHHQSPERPVFTCGGILTGESGFIGSEGFPGVYPPNSKCTWKITVPEGKVVVLNFRFIDLESDNLCRYDFVDVYNGHANGQRIGRFCGTFRPGALVSSGNKMMVQMISDANTAGNGFMAMFSAAEPNERGDQYCGGLLDRPSGSFKTPNWPDRDYPAGVTCVWHIVAPKNQLIELKFEKFDVERDNYCRYDYVAVFNGGEVNDARRIGKYCGDSPPAPIVSERNELLIQFLSDLSLTADGFIGHYIFRPKKLPTTTEQPVTTTFPVTTGLKPTVALCQQKCRRTGTLEGNYCSSDFVLAGTVITTITRDGSLHATVSIINIYKEGNLAIQQAGKNMSARLTVVCKQCPLLRRGLNYIIMGQVGEDGRGKIMPNSFIMMFKTKNQKLLDALKNKQC
notes: Produced in HEK 293-T cells from pHLsec; Used as analyte and as immobilized ligand in SPR and in the activity assays; also called full-length PCPE-2
B7: C1(R44A,F78A,R79D)-C2(L101A) (other)
chain: GPASQSPERPVFTCGGILTGESGFIGSEGFPGVYPPNSKCTWKITVPEGKVVVLNFAFIDLESDNLCRYDFVDVYNGHANGQRIGRFCGTADPGALVSSGNKMMVQMISDANTAGNGFMAMFSAAEPNERGDQYCGGLLDRPSGSFKTPNWPDRDYPAGVTCVWHIVAPKNQLIELKFEKFDVERDNYCRYDYVAVFNGGEVNDARRIGKYCGDSPPAPIVSERNELLIQFLSDASLTADGFIGHYIFRPKKLEHHHHHH
notes: also called C1-C2 with the combination of the 4 mutations

Assays:
[1] = target: T2, mini-procollagen III (fused to a N-terminal c-myc tag) (UniProt P02461 1098-1466); assay: SPR, CUB1CUB2* 0.78-50 nM over immobilized mini-procollagen III (435 RU)
T2 construct: also called Mini-III; not shown: N-terminal c-myc tag

[2] = target: T1, human BMP-1 (bone morphogenetic …); assay: SPR, C1-C2* 1.56-100 nM over immobilized BMP-1 (974 RU), steady-state fit
[3] = target: B6; assay: SPR, PCPE-2 over immobilized C-propeptide III (351 RU)
[4] = target: B6; assay: SPR, analyte over immobilized PCPE-2 (646 RU)
[5] = target: T1, human BMP-1 (bone morphogenetic …); assay: SPR, analyte over immobilized BMP-1 (974 RU)
[6] = target: T2, mini-procollagen III (fused to a …); assay: SPR, analyte over immobilized mini-procollagen III (435 RU)
[7] = target: T1, human BMP-1 (bone morphogenetic …); assay: SPR over immobilized BMP-1
[8] = target: CPIII-Long (model substrate derived from procollagen III); assay: cell-based or functional assay
[9] = target: T1, human BMP-1 (bone morphogenetic …); assay: SPR, PCPE-2 1.56-100 nM over immobilized BMP-1 (974 RU), steady-state fit
[10] = target: T1, human BMP-1 (bone morphogenetic …); assay: inhibition of BMP-1 (7 nM) cleavage of the fluorogenic peptide Mca-YVADAPK(Dnp)-OH, Morrison equation (apparent Ki)
[11] = target: T1, human BMP-1 (bone morphogenetic …); assay: SPR (Figure 65)
[12] = target: T2, mini-procollagen III (fused to a …); assay: SPR, analyte over immobilized mini-procollagen III (437 RU)

Binder: B1
Kd [1]: ~30 nM | Kd [2]: 28 nM

Binder: B2
Kd [3]: 45 nM

Binder: B3
binding result [4]: no binding (tested: 50 nM)

Binder: B4
binding result [5]: no binding (tested: 50 nM) | binding result [6]: no binding (tested: 200 nM)

Binder: B5
binding result [7]: binds

Binder: B6
maximum enhancement factor of CPIII-Long processing by BMP-1 (ratios 0:1 to 6:1) [8]: 1.3 fold | Kd [9]: 8.4 nM | Ki [10]: 2.8 nM

Binder: B7
binding result [11]: binds | binding result [12]: no binding (tested: 50 nM)
